Laboratory results as given in patent US20240091345A1.

Legend:
[1] = target: Recombinant gI protein (~46 kDa) from HSV-2 (BMP1052b or BMP1292) (HSV-2); assay: indirect ELISA on coated HSV-2 gI, one mouse
[2] = target: Recombinant gE/gI heterodimer protein (BMP1299) from HSV-1 (HSV-1) (UniProt P06487); assay: indirect ELISA on coated HSV-1 gE/gI
[3] = target: Recombinant gE protein (~51 kDa) from HSV-2 (BMP1049 or BMP1291) (HSV-2); assay: indirect ELISA on coated HSV-2 gE
[4] = target: Recombinant gI protein (~46 kDa) from HSV-2 (BMP1052b or BMP1292) (HSV-2); assay: indirect ELISA on coated HSV-2 gI

UniProt P06487, sequence (P06487 whole entry, one chain of several): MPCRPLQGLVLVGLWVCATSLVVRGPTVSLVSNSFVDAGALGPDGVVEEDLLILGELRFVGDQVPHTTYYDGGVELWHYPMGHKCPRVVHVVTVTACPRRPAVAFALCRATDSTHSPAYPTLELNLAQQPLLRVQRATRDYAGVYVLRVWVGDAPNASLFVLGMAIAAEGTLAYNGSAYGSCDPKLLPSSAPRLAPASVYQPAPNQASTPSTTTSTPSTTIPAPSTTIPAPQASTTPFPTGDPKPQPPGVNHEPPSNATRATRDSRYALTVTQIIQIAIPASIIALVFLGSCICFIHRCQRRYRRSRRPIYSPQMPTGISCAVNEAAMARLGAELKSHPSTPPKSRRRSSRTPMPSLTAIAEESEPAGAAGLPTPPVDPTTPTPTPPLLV

In the case of “serum of CB6F1 mice injected with NaCl 150 mM (Example 1, group 6, negative control) (antibody)”, the IgG titer [1] was 135 EU/mL.
With “serum of CB6F1 mice injected with NaCl 150 mM (Example 2, group 7, negative control) (antibody)” the IgG titer [2] was 11 EU/mL.
Work on “serum of CB6F1 mice injected with NaCl 150 mM (Example 3, group 7, negative control) (antibody)” yielded an IgG titer [3] of 17 EU/mL and an IgG titer [4] of 17 EU/mL.
